The series concerns the molecule itself. As to the kind of experiment: negative-stain transmission electron microscopy.

B1: recombinant B. subtilis TasA(28-261), fibre-forming (natural protein, B. subtilis NCIB3610, UniProt P54507 28-261, looked up)
chain: AFNDIKSKDATFASGTLDLSAKENSASVNLSNLKPGDKLTKDFQFENNGSLAIKEVLMALNYGDFKANGGSNTSPEDFLSQFEVTLLTVGKEGGNGYPKNIILDDANLKDLYLMSAKNDAAAAEKIKKQIDPKFLNASGKVNVATIDGKTAPEYDGVPKTPTDFDQVQMEIQFKDDKTKDEKGLMVQNKYQGNSIKLQFSFEATQWNGLTIKKDHTDKDGYVKENEKAHSEDKN
Regarding B1, the binding result is given as “binds”.

These data come from paper doi:10.1101/188995 (bioRxiv, 2018).
